Source: US20250368745A1 (published 2025)

T1: human IL-18BP (human, UniProt O95998 31-194)
T1 construct: UniProt printed as 095998; also called hIL-18BP
T1 sequence: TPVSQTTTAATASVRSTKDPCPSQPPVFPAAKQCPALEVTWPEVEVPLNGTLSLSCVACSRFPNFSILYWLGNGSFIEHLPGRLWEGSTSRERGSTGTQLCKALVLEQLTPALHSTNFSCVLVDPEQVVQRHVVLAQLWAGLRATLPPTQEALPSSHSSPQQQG

B1: SA301a LC-Q90A (antibody, name in Kabat numbering, V domains shown)
VH: QVQLQESGPGLVKPSQTLSLTCTVSGYSITSDYNSHWIRQPPGKGLEWIGYIHYSGSTNYNPSLKSRVTISRDTSKNQFSLKLSSVTAADTAVYYCARNYGSIYVNYFDYWGQGTLVTVSS
VL: EIVLTQSPATLSLSPGERATLSCSASSSVSYMYWYQQKPGQAPRPLIYRTSNLASGIPARFSGSGSGTDFTLTISSLEPEDFAVYYCQAYHSYPTFGGGTKVEIK
notes: IgG1 kappa
B2: SA301a LC-Q90D (antibody, name in Kabat numbering, V domains shown)
VH: QVQLQESGPGLVKPSQTLSLTCTVSGYSITSDYNSHWIRQPPGKGLEWIGYIHYSGSTNYNPSLKSRVTISRDTSKNQFSLKLSSVTAADTAVYYCARNYGSIYVNYFDYWGQGTLVTVSS
VL: EIVLTQSPATLSLSPGERATLSCSASSSVSYMYWYQQKPGQAPRPLIYRTSNLASGIPARFSGSGSGTDFTLTISSLEPEDFAVYYCQDYHSYPTFGGGTKVEIK
notes: IgG1 kappa
B3: SA301a LC-Q90E (antibody, name in Kabat numbering, V domains shown)
VH: QVQLQESGPGLVKPSQTLSLTCTVSGYSITSDYNSHWIRQPPGKGLEWIGYIHYSGSTNYNPSLKSRVTISRDTSKNQFSLKLSSVTAADTAVYYCARNYGSIYVNYFDYWGQGTLVTVSS
VL: EIVLTQSPATLSLSPGERATLSCSASSSVSYMYWYQQKPGQAPRPLIYRTSNLASGIPARFSGSGSGTDFTLTISSLEPEDFAVYYCQEYHSYPTFGGGTKVEIK
notes: IgG1 kappa
B4: SA301a LC-Q90F (antibody, name in Kabat numbering, V domains shown)
VH: QVQLQESGPGLVKPSQTLSLTCTVSGYSITSDYNSHWIRQPPGKGLEWIGYIHYSGSTNYNPSLKSRVTISRDTSKNQFSLKLSSVTAADTAVYYCARNYGSIYVNYFDYWGQGTLVTVSS
VL: EIVLTQSPATLSLSPGERATLSCSASSSVSYMYWYQQKPGQAPRPLIYRTSNLASGIPARFSGSGSGTDFTLTISSLEPEDFAVYYCQFYHSYPTFGGGTKVEIK
notes: IgG1 kappa
B5: SA301a LC-Q90G (antibody, name in Kabat numbering, V domains shown)
VH: QVQLQESGPGLVKPSQTLSLTCTVSGYSITSDYNSHWIRQPPGKGLEWIGYIHYSGSTNYNPSLKSRVTISRDTSKNQFSLKLSSVTAADTAVYYCARNYGSIYVNYFDYWGQGTLVTVSS
VL: EIVLTQSPATLSLSPGERATLSCSASSSVSYMYWYQQKPGQAPRPLIYRTSNLASGIPARFSGSGSGTDFTLTISSLEPEDFAVYYCQGYHSYPTFGGGTKVEIK
notes: IgG1 kappa
B6: SA301a LC-Q90H (antibody, name in Kabat numbering, V domains shown)
VH: QVQLQESGPGLVKPSQTLSLTCTVSGYSITSDYNSHWIRQPPGKGLEWIGYIHYSGSTNYNPSLKSRVTISRDTSKNQFSLKLSSVTAADTAVYYCARNYGSIYVNYFDYWGQGTLVTVSS
VL: EIVLTQSPATLSLSPGERATLSCSASSSVSYMYWYQQKPGQAPRPLIYRTSNLASGIPARFSGSGSGTDFTLTISSLEPEDFAVYYCQHYHSYPTFGGGTKVEIK
notes: IgG1 kappa
B7: SA301a LC-Q90I (antibody, name in Kabat numbering, V domains shown)
VH: QVQLQESGPGLVKPSQTLSLTCTVSGYSITSDYNSHWIRQPPGKGLEWIGYIHYSGSTNYNPSLKSRVTISRDTSKNQFSLKLSSVTAADTAVYYCARNYGSIYVNYFDYWGQGTLVTVSS
VL: EIVLTQSPATLSLSPGERATLSCSASSSVSYMYWYQQKPGQAPRPLIYRTSNLASGIPARFSGSGSGTDFTLTISSLEPEDFAVYYCQIYHSYPTFGGGTKVEIK
notes: IgG1 kappa
B8: SA301a LC-Q90K (antibody, name in Kabat numbering, V domains shown)
VH: QVQLQESGPGLVKPSQTLSLTCTVSGYSITSDYNSHWIRQPPGKGLEWIGYIHYSGSTNYNPSLKSRVTISRDTSKNQFSLKLSSVTAADTAVYYCARNYGSIYVNYFDYWGQGTLVTVSS
VL: EIVLTQSPATLSLSPGERATLSCSASSSVSYMYWYQQKPGQAPRPLIYRTSNLASGIPARFSGSGSGTDFTLTISSLEPEDFAVYYCQKYHSYPTFGGGTKVEIK
notes: IgG1 kappa
B9: SA301a LC-Q90L (antibody, name in Kabat numbering, V domains shown)
VH: QVQLQESGPGLVKPSQTLSLTCTVSGYSITSDYNSHWIRQPPGKGLEWIGYIHYSGSTNYNPSLKSRVTISRDTSKNQFSLKLSSVTAADTAVYYCARNYGSIYVNYFDYWGQGTLVTVSS
VL: EIVLTQSPATLSLSPGERATLSCSASSSVSYMYWYQQKPGQAPRPLIYRTSNLASGIPARFSGSGSGTDFTLTISSLEPEDFAVYYCQLYHSYPTFGGGTKVEIK
notes: IgG1 kappa
B10: SA301a LC-Q90M (antibody, name in Kabat numbering, V domains shown)
VH: QVQLQESGPGLVKPSQTLSLTCTVSGYSITSDYNSHWIRQPPGKGLEWIGYIHYSGSTNYNPSLKSRVTISRDTSKNQFSLKLSSVTAADTAVYYCARNYGSIYVNYFDYWGQGTLVTVSS
VL: EIVLTQSPATLSLSPGERATLSCSASSSVSYMYWYQQKPGQAPRPLIYRTSNLASGIPARFSGSGSGTDFTLTISSLEPEDFAVYYCQMYHSYPTFGGGTKVEIK
notes: IgG1 kappa
B11: SA301a LC-Q90P (antibody, name in Kabat numbering, V domains shown)
VH: QVQLQESGPGLVKPSQTLSLTCTVSGYSITSDYNSHWIRQPPGKGLEWIGYIHYSGSTNYNPSLKSRVTISRDTSKNQFSLKLSSVTAADTAVYYCARNYGSIYVNYFDYWGQGTLVTVSS
VL: EIVLTQSPATLSLSPGERATLSCSASSSVSYMYWYQQKPGQAPRPLIYRTSNLASGIPARFSGSGSGTDFTLTISSLEPEDFAVYYCQPYHSYPTFGGGTKVEIK
notes: IgG1 kappa
B12: SA301a LC-Q90R (antibody, name in Kabat numbering, V domains shown)
VH: QVQLQESGPGLVKPSQTLSLTCTVSGYSITSDYNSHWIRQPPGKGLEWIGYIHYSGSTNYNPSLKSRVTISRDTSKNQFSLKLSSVTAADTAVYYCARNYGSIYVNYFDYWGQGTLVTVSS
VL: EIVLTQSPATLSLSPGERATLSCSASSSVSYMYWYQQKPGQAPRPLIYRTSNLASGIPARFSGSGSGTDFTLTISSLEPEDFAVYYCQRYHSYPTFGGGTKVEIK
notes: IgG1 kappa
B13: SA301a LC-Q90S (antibody, name in Kabat numbering, V domains shown)
VH: QVQLQESGPGLVKPSQTLSLTCTVSGYSITSDYNSHWIRQPPGKGLEWIGYIHYSGSTNYNPSLKSRVTISRDTSKNQFSLKLSSVTAADTAVYYCARNYGSIYVNYFDYWGQGTLVTVSS
VL: EIVLTQSPATLSLSPGERATLSCSASSSVSYMYWYQQKPGQAPRPLIYRTSNLASGIPARFSGSGSGTDFTLTISSLEPEDFAVYYCQSYHSYPTFGGGTKVEIK
notes: IgG1 kappa
B14: SA301a LC-Q90T (antibody, name in Kabat numbering, V domains shown)
VH: QVQLQESGPGLVKPSQTLSLTCTVSGYSITSDYNSHWIRQPPGKGLEWIGYIHYSGSTNYNPSLKSRVTISRDTSKNQFSLKLSSVTAADTAVYYCARNYGSIYVNYFDYWGQGTLVTVSS
VL: EIVLTQSPATLSLSPGERATLSCSASSSVSYMYWYQQKPGQAPRPLIYRTSNLASGIPARFSGSGSGTDFTLTISSLEPEDFAVYYCQTYHSYPTFGGGTKVEIK
notes: IgG1 kappa
B15: SA301a LC-Q90V (antibody, name in Kabat numbering, V domains shown)
VH: QVQLQESGPGLVKPSQTLSLTCTVSGYSITSDYNSHWIRQPPGKGLEWIGYIHYSGSTNYNPSLKSRVTISRDTSKNQFSLKLSSVTAADTAVYYCARNYGSIYVNYFDYWGQGTLVTVSS
VL: EIVLTQSPATLSLSPGERATLSCSASSSVSYMYWYQQKPGQAPRPLIYRTSNLASGIPARFSGSGSGTDFTLTISSLEPEDFAVYYCQVYHSYPTFGGGTKVEIK
notes: IgG1 kappa
B16: SA301a LC-Q90Y (antibody, name in Kabat numbering, V domains shown)
VH: QVQLQESGPGLVKPSQTLSLTCTVSGYSITSDYNSHWIRQPPGKGLEWIGYIHYSGSTNYNPSLKSRVTISRDTSKNQFSLKLSSVTAADTAVYYCARNYGSIYVNYFDYWGQGTLVTVSS
VL: EIVLTQSPATLSLSPGERATLSCSASSSVSYMYWYQQKPGQAPRPLIYRTSNLASGIPARFSGSGSGTDFTLTISSLEPEDFAVYYCQYYHSYPTFGGGTKVEIK
notes: IgG1 kappa
B17: SA301a LC-Y91A (antibody, name in Kabat numbering, V domains shown)
VH: QVQLQESGPGLVKPSQTLSLTCTVSGYSITSDYNSHWIRQPPGKGLEWIGYIHYSGSTNYNPSLKSRVTISRDTSKNQFSLKLSSVTAADTAVYYCARNYGSIYVNYFDYWGQGTLVTVSS
VL: EIVLTQSPATLSLSPGERATLSCSASSSVSYMYWYQQKPGQAPRPLIYRTSNLASGIPARFSGSGSGTDFTLTISSLEPEDFAVYYCQQAHSYPTFGGGTKVEIK
notes: IgG1 kappa
B18: SA301a LC-Y91E (antibody, name in Kabat numbering, V domains shown)
VH: QVQLQESGPGLVKPSQTLSLTCTVSGYSITSDYNSHWIRQPPGKGLEWIGYIHYSGSTNYNPSLKSRVTISRDTSKNQFSLKLSSVTAADTAVYYCARNYGSIYVNYFDYWGQGTLVTVSS
VL: EIVLTQSPATLSLSPGERATLSCSASSSVSYMYWYQQKPGQAPRPLIYRTSNLASGIPARFSGSGSGTDFTLTISSLEPEDFAVYYCQQEHSYPTFGGGTKVEIK
notes: IgG1 kappa
B19: SA301a LC-Y91F (antibody, name in Kabat numbering, V domains shown)
VH: QVQLQESGPGLVKPSQTLSLTCTVSGYSITSDYNSHWIRQPPGKGLEWIGYIHYSGSTNYNPSLKSRVTISRDTSKNQFSLKLSSVTAADTAVYYCARNYGSIYVNYFDYWGQGTLVTVSS
VL: EIVLTQSPATLSLSPGERATLSCSASSSVSYMYWYQQKPGQAPRPLIYRTSNLASGIPARFSGSGSGTDFTLTISSLEPEDFAVYYCQQFHSYPTFGGGTKVEIK
notes: IgG1 kappa
B20: SA301a LC-Y91G (antibody, name in Kabat numbering, V domains shown)
VH: QVQLQESGPGLVKPSQTLSLTCTVSGYSITSDYNSHWIRQPPGKGLEWIGYIHYSGSTNYNPSLKSRVTISRDTSKNQFSLKLSSVTAADTAVYYCARNYGSIYVNYFDYWGQGTLVTVSS
VL: EIVLTQSPATLSLSPGERATLSCSASSSVSYMYWYQQKPGQAPRPLIYRTSNLASGIPARFSGSGSGTDFTLTISSLEPEDFAVYYCQQGHSYPTFGGGTKVEIK
notes: IgG1 kappa
B21: SA301a LC-Y91I (antibody, name in Kabat numbering, V domains shown)
VH: QVQLQESGPGLVKPSQTLSLTCTVSGYSITSDYNSHWIRQPPGKGLEWIGYIHYSGSTNYNPSLKSRVTISRDTSKNQFSLKLSSVTAADTAVYYCARNYGSIYVNYFDYWGQGTLVTVSS
VL: EIVLTQSPATLSLSPGERATLSCSASSSVSYMYWYQQKPGQAPRPLIYRTSNLASGIPARFSGSGSGTDFTLTISSLEPEDFAVYYCQQIHSYPTFGGGTKVEIK
notes: IgG1 kappa
B22: SA301a LC-Y91K (antibody, name in Kabat numbering, V domains shown)
VH: QVQLQESGPGLVKPSQTLSLTCTVSGYSITSDYNSHWIRQPPGKGLEWIGYIHYSGSTNYNPSLKSRVTISRDTSKNQFSLKLSSVTAADTAVYYCARNYGSIYVNYFDYWGQGTLVTVSS
VL: EIVLTQSPATLSLSPGERATLSCSASSSVSYMYWYQQKPGQAPRPLIYRTSNLASGIPARFSGSGSGTDFTLTISSLEPEDFAVYYCQQKHSYPTFGGGTKVEIK
notes: IgG1 kappa

Target: T1, human IL-18BP
Test: BLI, apparent KD

| Binder | Kd |
| --- | --- |
| B1 | 1.07 nM |
| B2 | 0.31 nM |
| B3 | 0.18 nM |
| B4 | 0.65 nM |
| B5 | 0.78 nM |
| B6 | 0.25 nM |
| B7 | 0.24 nM |
| B8 | 0.1 nM |
| B9 | 0.13 nM |
| B10 | 0.27 nM |
| B11 | 0.09 nM |
| B12 | 0.51 nM |
| B13 | 0.41 nM |
| B14 | 0.4 nM |
| B15 | 0.29 nM |
| B16 | 1.04 nM |
| B17 | 1.08 nM |
| B18 | 0.31 nM |
| B19 | 0.26 nM |
| B20 | 0.23 nM |
| B21 | 0.42 nM |
| B22 | 1.13 nM |
